“Also recorded” adds a separate entry of the source.

In assay [1] the target is T1, CRMP-2-CaV2.2 interaction (Rattus norvegicus, UniProt Q02294).
T1 construct: that could be captured from rat brains; from tissue; host or cells: rat brain / spinal cord lysates (CaV2.2)
In words: Immunoprecipitation of CRMP-2/CaV2.2 in the presence of peptides. The note with it: spinal cord lysates or rat brains; peptides 10 μM. The class given is binding. As to the method: Referring now to FIG. 18. […] Peptides (10 μM each) were added for 30 min prior to addition of the CRMP-2-His protein. Representative blot from 12 separate experiments is shown. (FIG. 18.B) In vitro binding of L1-GST and Ct-dis-GST fusion proteins to CRMP-2 in the presence of scramble or CBD3 peptides (10 μM). The purification of the L1 and Ct-dis regions of CaV2.2 has been described by us previously. CRMP-2 bound to L1 and Ct-dis was probed with a CRMP-2 antibody. Representative blot from 4 separate experiments are shown. Similar results were obtained in experiments with spinal cord lysates (FIGS. 18.B and 18D).
Immunoblotting. This was performed as described previously. Rat brain synaptosomes were pre-cleared by a 1-h incubation with 20 μl of a 50% slurry of protein A/G beads (Pierce). The cleared lysate was then incubated overnight with various primary antibodies or rabbit or mouse isotype-specific IgGs (Sigma) as controls. The antibody-captured complexes were recovered with fresh protein A-agarose (for rabbit polyclonal antibodies) or protein A/G-agarose (for mouse monoclonal antibodies) beads (20 μl of original bead slurry/sample) by incubation with lysate/antibody mixture at 4° C. for 2 h. The beads were then washed three times with lysis buffer. Prior to electrophoresis on SDS-polyacrylamide gels, protein samples were boiled in Laemmli sample buffer for 5 min. […]

In assay [2] the test system is depolarization-induced Ca2+ influx in hippocampal neurons. Kind of assay: Fura-2 calcium imaging of hippocampal neurons. Type of assay: cell-based, rat. The note with it: expressed from plasmid; KCl 30 mM; Fura-2AM. As to the method: Referring now to FIG. 19. Overexpressed CBD3 or TAT-CBD3 reduces Ca^2+ influx predominantly via N-Type Ca^2+ channels. (FIGS. 19.A and 19.B) hippocampal neurons cultured for 5 days in vitro were transfected with DNA constructs encoding CBD3 or a scramble sequence using Lipofectamine, and then loaded with the ratiometric Ca^2+-sensitive dye Fura-2AM (3 μM). Changes in [Ca^2+]c, in response to plasma membrane depolarization with potassium chloride (KCl, 30 mM), were recorded using time-lapse, wide-field fluorescence microscopy. […] In both panels, n indicates the number of neurons from which Fura-2 fluorescence was recorded. […] (FIG. 19.D) Ca^2+ influx was monitored in DRG neurons using Fura-2AM. […] Changes in the Fura-2 F340/F380 were monitored for 10 min following stimulation with 45 mM KCl. […]
Isolation and maintenance of primary hippocampal neurons for calcium imaging. […] For fluorescence measurements, neurons were plated on glass-bottomed Petri dishes without preplated glia as previously described. […]
Calcium imaging. […] Osmolarity of the solutions was measured with the osmometer Osmette II™ (Precision Systems Inc., Natick, Mass.). […] Fluorescence was recorded through a 505 nm dichroic mirror at 535±25 nm. The fluorescence images were taken every 5 seconds during the time-course of the experiment using the minimal exposure time that provided acceptable image quality. […]

T1 sequence (Q02294 whole entry): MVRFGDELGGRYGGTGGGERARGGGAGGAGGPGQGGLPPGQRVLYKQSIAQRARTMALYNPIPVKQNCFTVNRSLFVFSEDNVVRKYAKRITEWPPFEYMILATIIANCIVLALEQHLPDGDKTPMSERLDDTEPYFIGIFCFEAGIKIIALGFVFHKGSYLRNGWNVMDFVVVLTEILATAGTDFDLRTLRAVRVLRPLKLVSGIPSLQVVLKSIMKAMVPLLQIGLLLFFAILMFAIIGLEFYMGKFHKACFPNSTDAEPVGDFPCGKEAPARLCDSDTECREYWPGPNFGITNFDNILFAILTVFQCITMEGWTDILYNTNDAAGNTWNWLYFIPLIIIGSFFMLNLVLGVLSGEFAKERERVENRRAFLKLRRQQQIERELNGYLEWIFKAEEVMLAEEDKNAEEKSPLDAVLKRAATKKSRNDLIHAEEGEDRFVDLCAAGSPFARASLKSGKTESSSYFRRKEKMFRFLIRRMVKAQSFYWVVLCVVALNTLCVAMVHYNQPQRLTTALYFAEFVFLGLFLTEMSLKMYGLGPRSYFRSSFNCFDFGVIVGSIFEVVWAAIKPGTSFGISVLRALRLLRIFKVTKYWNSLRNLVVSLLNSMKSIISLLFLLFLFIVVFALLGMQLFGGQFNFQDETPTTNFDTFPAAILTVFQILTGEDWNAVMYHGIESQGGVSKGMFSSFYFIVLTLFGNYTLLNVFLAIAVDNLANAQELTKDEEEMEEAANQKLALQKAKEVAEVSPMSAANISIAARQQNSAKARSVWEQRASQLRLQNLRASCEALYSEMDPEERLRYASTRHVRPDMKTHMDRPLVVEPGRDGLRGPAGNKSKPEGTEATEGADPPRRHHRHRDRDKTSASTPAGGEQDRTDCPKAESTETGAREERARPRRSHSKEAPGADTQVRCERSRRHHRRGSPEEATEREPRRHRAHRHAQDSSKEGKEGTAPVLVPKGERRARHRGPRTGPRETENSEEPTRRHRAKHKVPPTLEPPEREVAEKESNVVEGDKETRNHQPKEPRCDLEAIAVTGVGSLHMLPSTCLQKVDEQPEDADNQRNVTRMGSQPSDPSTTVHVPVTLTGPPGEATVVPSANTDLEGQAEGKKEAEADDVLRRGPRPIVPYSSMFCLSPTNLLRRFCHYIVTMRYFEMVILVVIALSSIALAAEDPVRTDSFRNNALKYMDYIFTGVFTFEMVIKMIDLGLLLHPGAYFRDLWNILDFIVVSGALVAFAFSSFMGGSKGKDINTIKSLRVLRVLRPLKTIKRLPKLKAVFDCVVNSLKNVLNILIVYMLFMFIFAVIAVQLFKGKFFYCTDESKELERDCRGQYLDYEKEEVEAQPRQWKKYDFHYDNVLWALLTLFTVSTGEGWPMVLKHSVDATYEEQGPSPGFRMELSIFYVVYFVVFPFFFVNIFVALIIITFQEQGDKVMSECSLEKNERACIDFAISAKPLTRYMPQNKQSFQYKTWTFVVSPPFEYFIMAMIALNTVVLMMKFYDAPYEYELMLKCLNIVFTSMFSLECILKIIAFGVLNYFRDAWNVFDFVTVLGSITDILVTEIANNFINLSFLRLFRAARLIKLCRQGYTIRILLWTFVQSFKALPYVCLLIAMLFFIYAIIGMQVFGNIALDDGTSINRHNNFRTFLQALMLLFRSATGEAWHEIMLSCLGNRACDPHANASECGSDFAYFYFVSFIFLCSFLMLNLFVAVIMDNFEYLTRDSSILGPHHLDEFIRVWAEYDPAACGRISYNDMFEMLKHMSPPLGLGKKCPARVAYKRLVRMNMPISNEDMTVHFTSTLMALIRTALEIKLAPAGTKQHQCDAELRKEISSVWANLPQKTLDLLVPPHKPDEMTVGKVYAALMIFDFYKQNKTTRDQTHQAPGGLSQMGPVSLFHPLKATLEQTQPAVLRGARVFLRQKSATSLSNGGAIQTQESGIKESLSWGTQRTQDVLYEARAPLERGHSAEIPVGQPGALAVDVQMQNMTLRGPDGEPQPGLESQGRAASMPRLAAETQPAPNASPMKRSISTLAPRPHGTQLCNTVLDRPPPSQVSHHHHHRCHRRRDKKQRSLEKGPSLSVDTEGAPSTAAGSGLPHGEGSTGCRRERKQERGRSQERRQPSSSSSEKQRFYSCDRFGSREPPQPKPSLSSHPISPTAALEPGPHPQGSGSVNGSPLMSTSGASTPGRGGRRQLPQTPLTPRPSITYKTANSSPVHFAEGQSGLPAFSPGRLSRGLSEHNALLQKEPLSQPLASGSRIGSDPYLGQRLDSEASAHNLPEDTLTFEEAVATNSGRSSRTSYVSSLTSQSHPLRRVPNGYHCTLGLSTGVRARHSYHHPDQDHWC
T1 sequence (P54287 whole entry partner): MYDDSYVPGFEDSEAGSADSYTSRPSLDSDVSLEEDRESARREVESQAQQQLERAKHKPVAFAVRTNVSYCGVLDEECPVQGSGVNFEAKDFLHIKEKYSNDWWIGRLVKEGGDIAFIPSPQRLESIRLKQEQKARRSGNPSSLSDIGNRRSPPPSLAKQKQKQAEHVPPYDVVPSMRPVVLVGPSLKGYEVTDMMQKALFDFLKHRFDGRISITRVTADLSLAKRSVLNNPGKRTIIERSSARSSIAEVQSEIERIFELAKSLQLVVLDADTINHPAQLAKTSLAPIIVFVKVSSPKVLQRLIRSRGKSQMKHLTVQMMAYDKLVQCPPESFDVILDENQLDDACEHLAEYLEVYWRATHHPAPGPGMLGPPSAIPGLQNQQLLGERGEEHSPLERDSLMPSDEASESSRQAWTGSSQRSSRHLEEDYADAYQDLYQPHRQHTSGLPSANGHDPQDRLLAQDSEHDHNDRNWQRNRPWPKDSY

In the case of ARSRLAELRGVPRGL (CBD3), the “CRMP-2-CaV2.2 interaction (immunoprecipitation)” value in assay [1] is “inhibited; also recorded: inhibits the binding between CRMP-2 and CaV2.2”. Moreover, the depolarization-induced calcium influx entry in assay [2] was “reduced depolarization-induced calcium influx; also recorded: blocked depolarization-induced calcium signaling”.
